Results reported in publication PMC7069927, “Amyloid formation of bovine insulin is retarded in moderately acidic pH and by addition of short-chain alcohols” (European Biophysics Journal, 2020).
Like-named read-outs stand apart in the source and are kept apart here.

Experiments:
bovine insulin = target: T1, bovine insulin (Bos taurus, UniProt P01317); test: Effect of short-chain alcohols on insulin fibrillation kinetics (ThT) at pH 4.0; conditions: ammonium acetate buffer pH 4.0, ThT, 60 °C; for retardation of insulin fibril formation (half-time) at the most effective alcohol:buffer mixing ratio: quiescent, triplicate, alcohol range 0-50% v/v; for alcohol concentration of maximal retarding effect: volume fraction
T1 construct: 51 amino acid residues, distributed over two polypeptide chains (A and B) that are interconnected by disulphide bridges; purchased Sigma-Aldrich I5500
Procedure: (§1) Aggregation kinetics was monitored by ThT fluorescence in a Fluostar Omega or Fluostar Optima fluorescence plate reader (BMG Labtech, Ortenberg, Germany) at 60 °C without shaking. Samples were deposited in 100 μl triplicate in black half-area 96-well microtiter plates with transparent bottoms (Corning #3881), and the plates were sealed with plastic film (Bio-Rad Laboratories, Hercules, CA, U.S.) to avoid sample evaporation. ThT fluorescence emission was detected using bottom optics, a 440 ± 10 nm band pass excitation filter, and a 485 ± 12 nm band pass emission filter. The ThT concentration was 7.2 μM in all experiments.
To mimic conditions relevant to industrial purification of insulin, we investigated the effect of three short-chain alcohols (methanol, ethanol and isopropanol) on insulin aggregation in ammonium acetate buffer. We monitored ThT kinetics as function of increasing concentration (range: 0–50% v/v) of each alcohol (Fig. 5a–c). […] Methanol is apparently a weaker modulator (it retards fibril formation by ~ 2 times); higher concentrations (40%) are also needed to reach maximal effect.

[1] = AFM imaging of the end point of the fibrillation reaction; assay type: physicochemical, bovine; conditions: aggregated in ammonium acetate pH 4.0 in presence of 30% (vol/vol) EtOH; on mica
Procedure: For atomic force microscopy, fibrillar insulin was deposited on freshly cleaved mica and left to settle for 5 min, after which the mica plates were rinsed with milli-Q water and dried under a gentle stream of nitrogen. AFM images were recorded on an NTEGRA Prima setup (NT-MDT, Moscow, Russian Federation) equipped with a gold-coated single crystal silicon cantilever (NSG-01, spring constant ~ 5.1 N/m, resonance frequency of ~ 150 kHz). The images were processed in the Gwyddion software package (Nečas and Klapetek [2012]) using planar subtraction, polynomial background subtraction and correction for linear aberrations. For fluorescence microscopy, 150 µl of insulin solution was placed on positively charged glass (Thermo Scientific, Waltham, MA, USA) and sealed with a 18 × 18 mm coverslip. A Zeiss AxioObserver.Z1 inverted fluorescence microscope (Carl Zeiss AG, Oberkochen, Germany) with a 100 × oil immersion objective (NA = 1.46) was used in combination with a Photometrics Evolve EMCCD camera (Photometrics, Tuscon, AZ, USA), 100 ms exposure time, to obtain the images of the samples.
This is probably due to ThT’s fluorescence being sensitive both to ThT binding affinity and to the quantum yield of each bound dye molecule (Lindberg et al.[2015], [2017]). […]

[2] = Fibril formation yield (centrifugation to sediment amyloid fibrils); assay type: physicochemical, bovine
Procedure: The fibril yields for the reactions shown in Fig. 1 were estimated by centrifugation experiments to sediment amyloid fibrils formed at a starting concentration of 58 μM insulin. […] We also used centrifugation to sediment insoluble insulin in 1 mg/ml solutions to investigate the solubility across a range of buffers with different pH values (Fig. 1d).

[3] = ref Wintersteiner and Abramson [1933]; cited from earlier work
[4] = centrifuged 13,400 rpm 15 min, absorption 280 nm
Procedure: The solubility of insulin as function of pH was estimated by preparing insulin solutions with varying pH at a concentration of 1 mg/ml. The solutions were centrifuged at 13,400 rpm in an Eppendorf Minispin tabletop centrifuge (Eppendorf, Hamburg, Germany) for 15 min to pellet non-dissolved insulin. The solubility was estimated by measuring the insulin concentration in the supernatant by absorption (see above). The same strategy was used to determine fibril formation yields at different pH values, using pre-formed fibrils as starting material.

[5] = Thioflavin-T kinetic assay of insulin amyloid formation; assay type: physicochemical, bovine; conditions: 64 μM insulin, 60 °C, quiescent; for half-time of amyloid formation: ThT 7.2 μM
Procedure: as §1
We set up thioflavin-T kinetic assays to monitor the aggregation of bovine insulin in microtitre plates at 60 °C and under quiescent conditions, initially at pH 2.2 to establish a reproducible method, then extending to pH 7.0 to reflect native conditions. The resulting kinetic curves (presented as normalized ThT fluorescence) are presented in Fig. 1a, b; each condition was analysed in triplicate and all curves are shown. The aggregation rate of bovine insulin increases with increase in monomer concentration at pH 2.2 (Fig. 1a), which is intuitively expected and also consistent with many previous studies (see for example Brange and Langkjoer [1993]; Nielsen et al. [2001]). […] The scaling component, i.e. the slope of the fitted straight line to the half-time data, for insulin aggregation kinetics at pH 2.2 is − 1.02, which is consistent with a nucleation-dependent aggregation mechanism (Meisl et al. [2016]). […] This is, from an amyloid formation point of view, an anomalous behaviour that can be explained by that insulin, in addition to existing as a monomer, populates higher-order oligomeric states that are resilient to amyloid formation; or interfere with fibril elongation (Ziaunys et al. [2018]). These higher-order states can be significant, or even predominant, at pH 7.0 despite that no stabilizing zinc was added (Ziaunys et al. [2018]; Waugh et al. [1953]; Goldman and Carpenter, [1974]).

T1 sequence (P01317 25-54 limits assumed): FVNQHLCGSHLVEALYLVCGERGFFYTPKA
T1 sequence (P01317 85-105 limits assumed): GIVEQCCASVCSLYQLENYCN

CCO [Ethanol, ethanol]
retardation of insulin fibril formation (half-time) at the most effective alcohol:buffer mixing ratio (bovine insulin): three to four
alcohol concentration of maximal retarding effect (bovine insulin): 30–35%

CO [Methanol, methanol]
retardation of insulin fibril formation (half-time) at the most effective alcohol:buffer mixing ratio (bovine insulin): ~ 2 times
alcohol concentration of maximal retarding effect (bovine insulin): 40%

CC(C)O [isopropanol]
retardation of insulin fibril formation (half-time) at the most effective alcohol:buffer mixing ratio (bovine insulin): three to four
alcohol concentration of maximal retarding effect (bovine insulin): 30–35%

Bovine insulin
size of oligomeric particles at end point of fibrillation (AFM) [1]: 2–3 nm
fibril yield ([2]; pH 2.2, starting concentration 58 μM insulin, absorption of supernatant): 91 ± 8%
fibril yield ([2]; pH 4.0, absorption of supernatant): > 99.5%
fibril yield ([2]; pH 7.0, starting concentration 58 μM insulin, absorption of supernatant, n = 3): 90 ± 5%
isoelectric point (pI) [3]: 5.3
insulin solubility ([4]; across most of the assayed pH range except pH 5.0-6.0, 1 mg/ml (172 μM), pre-dissolved in 100 mM HCl): high
insulin solubility ([4]; pH 4.0, 1 mg/ml): solubility remains high
insulin solubility ([4]; pH 5.0-6.0, close to pI, 1 mg/ml): low solubility
half-time of amyloid formation ([5]; ammonium acetate buffer (200 mM) pH 4.0, printed 'ammonium phosphate', triplicate): 7.7 ± 0.8 h
half-time of amyloid formation ([5]; citrate-phosphate buffer pH 4.0, triplicate): 6.5 ± 0.1 h
slowing of amyloid formation kinetics as measured by half-time of fibril formation ([5]; pH 4.0 compared with pH 3.0 or pH 7.0, citrate-phosphate buffer, ThT, triplicate): ~ 50%
amyloid formation ([5]; pH 5.0-6.0, citrate-phosphate buffer, ThT, no reliable half-times within assayed time range): strongly inhibited
